Experimental data reported in patent US20130274129.

System: AvrBs3-KRAB
Assay: cell_activity
Details: two copies of TAL site, LacZ reporter, 293FT; around 40% with one copy

## AvrBs3 TAL binding site in CMV promoter reporter
  activity: 70 % repression
